Reference: patent US20220275059A1 (HARBOUR ANTIBODIES, published 2022)

Target: MERS-CoV S S1 subunit (MERS-S1) (MERS-CoV EMC isolate, UniProt K9N5Q8 19-748)
Assay: ForteBio Octet kinetic measurement (FIG. 3A)

B1: 1.6c2 (antibody, V domains shown)
VH: QVQLVQSGTEVKKPGSSVKVSCKASGGAFSAYAITWVRQAPGQGLEWMGGIIPIFGTAHYAQKFQGRVTITADKSTSTAFMELSSLRSEDTAVYYCAREGDIEVVLAGRGYFDYWGQGTLVTVSS
VL: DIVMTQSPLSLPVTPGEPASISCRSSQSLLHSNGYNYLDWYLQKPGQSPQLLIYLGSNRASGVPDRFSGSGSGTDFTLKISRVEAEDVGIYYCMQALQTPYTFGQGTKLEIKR
How did the Kd turn out when B1 was run?
Its Kd is roughly 0.86 nM.

B2: 7.3a9 (antibody, V domains shown)
VH: QVQLVESGGGVVQPGRSLRLSCAASGFNFSSDGMHWVRQAPGKGLEWVAVIWYDGRNKYYADSVKGRFTISRDNTKNTLYLQMNSLRAEDTAVYYCARDRGITMGRGPYYYYYGMDVWGQGTTVTVSS
VL: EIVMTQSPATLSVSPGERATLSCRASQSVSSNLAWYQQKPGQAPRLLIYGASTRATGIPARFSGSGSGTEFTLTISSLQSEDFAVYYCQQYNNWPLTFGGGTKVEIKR
How did the Kd turn out when B2 was run?
The Kd was roughly 0.43 nM.

B3: 7.6c11 (antibody, V domains shown)
VH: QVQLVESGGGVVQPGRSLRLSCAASGFTFSSDGMHWVRQAPGKGLEWVAVIWYDGSSEYYGDSVKGRFTISRDNSKNTLYLQMNSLRAEDTAVYYCARDRGITMGRGVYYYYYGMDVWGQGTTVTVSS
VL: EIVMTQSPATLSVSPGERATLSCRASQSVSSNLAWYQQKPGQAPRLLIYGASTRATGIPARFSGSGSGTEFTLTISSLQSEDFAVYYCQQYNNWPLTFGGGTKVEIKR
Which Kd does the source give for B3 here?
The Kd was roughly 0.4 nM.

B4: 4.2c3 (antibody, V domains shown)
VH: QVQLVESGGGVVQPGRSLRLSCTASGFTFSGYGMHWVRQAPGKGLEWVAIIWYDGSNTYYADSAKGRFTISRDNSKNTLYLQMNSLRVEDTAVYYCARDRGISVAALWKYYYYHGLDVWGQGTTVTVSS
VL: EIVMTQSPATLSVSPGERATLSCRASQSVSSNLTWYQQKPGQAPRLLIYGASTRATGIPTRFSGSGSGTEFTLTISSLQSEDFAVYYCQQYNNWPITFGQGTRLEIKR
B4 was tested. Which Kd did it give?
The Kd was roughly 0.12 nM.

B5: 4.7a6 (antibody, V domains shown)
VH: QVQLVESGGGVVQPGRSLRLSCTASGFTFSGYAMHWVRQAPVKGLEWVAIIWYDGSNKYYADSVKGRFTISRDNSKNTLYLQMNSLRAEDTAVYYCARDRGISEAAKWKYYYYYGMDVWGQGTTVTVSS
VL: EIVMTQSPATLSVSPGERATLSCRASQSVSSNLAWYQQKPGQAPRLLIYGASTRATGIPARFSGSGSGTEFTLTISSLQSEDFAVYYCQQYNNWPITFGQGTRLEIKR
For B5, which Kd is on record?
Its Kd is roughly 0.13 nM.

B6: 4.9f12 (antibody, V domains shown)
VH: QVQLVESGGGVVQPGMSLRLSCTASGFTFSGYAMHWVRQAPVKGLEWVAIIWYDGSNKYYADSVKGRFTISRDNSKNTLYLQMNSLRAEDTAVYYCARDRGISEAAKWKYYYYYGMDVWGQGTTVTVSS
VL: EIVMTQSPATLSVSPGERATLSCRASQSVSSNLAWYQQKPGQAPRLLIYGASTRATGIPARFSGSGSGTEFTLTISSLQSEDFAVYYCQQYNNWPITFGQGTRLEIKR
With B6 as the binder, how does the Kd read?
The Kd was roughly 0.13 nM.

B7: 7.7f3 (antibody, V domains shown)
VH: QVQLVESGGGVVQPGRSLRLSCTASGFTFSGYGMHWVRQAPGKGLEWVAIIWYDGSNTYYTDSAKGRFTISRDNSKDTLYLQMNSLRVEDTAVYYCARDRGISVAALWKYYYYHGLDVWGQGTTTTVSS
VL: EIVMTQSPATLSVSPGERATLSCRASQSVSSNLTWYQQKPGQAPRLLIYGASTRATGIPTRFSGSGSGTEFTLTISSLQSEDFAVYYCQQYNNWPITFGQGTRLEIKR
How did the Kd turn out when B7 was run?
Its Kd is roughly 0.12 nM.

B8: 7.7h8 (antibody, V domains shown)
VH: QVQLVESGGGVVQTGRSLRLSCAASGFTFSAYAMHWVRQAPGKGLEWVTFIGYEESNKYHADSVKGRFTISRDNSKNTLYLQMNSLRAEDTAVYYCARDRGISVAATWDYYYYYGMDVWGQGTTVTVSS
VL: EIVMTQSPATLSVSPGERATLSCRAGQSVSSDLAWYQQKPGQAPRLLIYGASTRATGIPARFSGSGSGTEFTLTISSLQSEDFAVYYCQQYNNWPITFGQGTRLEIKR
For B8, which Kd is on record?
Its Kd is roughly 0.54 nM.

B9: 7.9c10 (antibody, V domains shown)
VH: QVQLVESGGDVVQPGRSLRLSCAASGITFSNYGMHWVRQAPGKGLEWVAVIWYDGSNKYYADSVKGRFTISRDNSKNTLYLQMNSLRAEDTAVYYCARDRGMTGTTWEYYYYYGMDVWGQGTTVTVSS
VL: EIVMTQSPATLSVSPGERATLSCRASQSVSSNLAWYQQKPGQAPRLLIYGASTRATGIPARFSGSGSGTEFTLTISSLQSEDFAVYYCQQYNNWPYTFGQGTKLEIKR
For B9, which Kd is on record?
The Kd was roughly 0.11 nM.

B10: 7.9g1 (antibody, V domains shown)
VH: QVQLVESGGGVVQPGRSLRLSCAASGFTFSTYAMHWVRQAPGKGLEWVAVIWYDGSNKYYADSVKGRLTISRDNSKNTLFLQMNSLRAEDTAVYYCARDRGITTTDTGYYYYYYGLDIWGQGTTVTVSS
VL: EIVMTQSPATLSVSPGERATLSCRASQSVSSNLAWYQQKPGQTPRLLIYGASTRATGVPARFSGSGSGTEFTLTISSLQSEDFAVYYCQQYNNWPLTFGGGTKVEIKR
B10 was tested. Which Kd did it give?
Its Kd is roughly 0.21 nM.

B11: 2.9d7 (antibody, V domains shown)
VH: QRKLVESGGGVVQPGRSLRLSCAVSGLIFSNYGMHWVRQAPGKGLEWVAVIWYDGSNTYYTDSVKGRFTISRDNSKNTLYLQMNSLRAEDTAVYYCARDRGMTAPGPGTYYYFYGMDVWGQGTTVTVSS
VL: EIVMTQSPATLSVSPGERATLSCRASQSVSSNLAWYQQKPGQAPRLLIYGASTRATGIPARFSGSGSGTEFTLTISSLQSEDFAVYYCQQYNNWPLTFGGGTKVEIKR
How did the Kd turn out when B11 was run?
Its Kd is roughly 0.35 nM.

B12: 1.3h2 (antibody, V domains shown)
VH: QVQLVESGGGVVQPGRSLRLSCAASGFTFSRYGMHWVRQAPGKGLQWVAFIWYDGSNKYYADAVKVRFTISRDNSKNTLYLQMNSLRAEDTAVYYCATEGDYYGSGSYSRAEYFQEWGQGTLVTVSS
VL: EIVMTQSPATLSVSPGERATLSCRASQSVSINLAWYQQKPGQAPRLLIYDTSARATGIPARFSGSGSGTEFTLTISSLQSEDFAVYYCQQYNNWPFTFGPGTKVDIKR
B12 was tested. Which Kd did it give?
Its Kd is roughly 1.9 nM.

B13: 7.5d3 (antibody, V domains shown)
VH: QVQLVESGGGVVQPGRSLRLSCAATGFTFSYYGMHWVRQAPGKGLEWVAVIWFDGTNIYYADSVRGRFTISRDNSKNTLYLQMNSLRAEDSAVYYCARDRRSSDWYVVFDYWGQGTLVTVSS
VL: DIQLTQSPSFLSASVGDRVTITCRASQGISSYLAWYQQKPGKAPKLLIYAASTLQSGVPSRFSGSGSGTEFTLTISSLQPEDFATYYCQQLNSYPWTFGQGTKVEIKR
B13 was tested. Which Kd did it give?
The Kd was roughly 6 nM.

B14: 7.9g10 (antibody, V domains shown)
VH: QVQLVQSGAEVKKPGSSVKVSCKASGGTFSSYAISWVRQAPGQGLEWMGGIIPIFGTANYAQKFQGRVTITADKSTNTAYMELSSLRSEDTAVYYCAREDITMVRGVITNYWYFDLWGRGTLVTVSS
VL: DIQMTQSPSSLSASVGDRVTITCRASQDISNYLAWYQQKPGKVPKLLIYAASTLQSGVPSRFSGSGSGTDFTLTISSLQPEDVATYYCQKSNNAPLTFGGGTKVEIKR
With B14 as the binder, how does the Kd read?
Its Kd is roughly 0.2 nM.

B15: 7.2h5 (antibody, V domains shown)
VH: QVQLVQSGAEVKKPGSSVKVSCKASGGTFSSYAISWVRQAPGQGLEWMGGIIPIFGTVKNAQKFQGRVTITADKSTGTAYMELSSLRSEDTAVYYCARDHYYDSNDYYWYFDLWGRGTLVTVSS
VL: EIVMTQSPATLSVSPGERATLSCRASQSVSSNLAWYQKKPGQAPRLLIYGASTRVTGIPARFSGSGSGTEFTLTISSLQSEDFAVYYCQQYNNWPLTFGGGTKVEIKR
With B15 as the binder, how does the Kd read?
Its Kd is roughly 0.36 nM.

B16: 1.6e1 (antibody, V domains shown)
VH: QVQLVQSGAEVKKPGSSVKVSCKASGGAFSAYAISWVRQAPGQGLEWMGGIIPIFGTANYAQKFQGRVTITADTSTSTAYMELSSLRSEDTAVYYCAREGDIEVVLAARGFFDYWGQGTLVTVSS
VL: DIQMTQSPSSLSASVGDRVTITCRASQGISNYLAWYQQKPGKVPKLLIYAASTLQSGVPSRFSGSGSGTDFTLTISSLQPEDVATYYCQKYNSAPWTFGQGTKVEIKR
With B16 as the binder, how does the Kd read?
The Kd was roughly 0.11 nM.

B17: 5.11h8 (antibody, V domains shown)
VH: QVQLVQSGAEVKKPGSSVKVSCKASGGAFSAYAIDWVRQAPGQGLEWMGGIIPIFGTAHYAQKLQGRVTITADKSTSTAYMELSSLRSEDTAVYYCAREGDSGLVLAARGFFDYWGQGTLVTVSS
VL: DIQMTQSPSSLSASVGDRVTITCRASQGISNYLAWYQQKPGKVPKLLIYAASTLQSGVPSRFSGSGSGTDFTLTISSLQPEDVATYYCQKYNSAPWTFGQGTKVEIKR
B17 was tested. Which Kd did it give?
Its Kd is roughly 0.68 nM.

B18: 1.10e9 (antibody, V domains shown)
VH: QVQLQQSGPGLVKPSQTLSLTCAISGDSVSSNSAAWNWIRQSPSRGLEWLGRTYYRSKWYNDYAVSVKSRITINPNTSKNQFSLQLNPVTPEDTAVYFCAREWFGEGYFDLWGRGTLVTVSS
VL: EIVMTQSPATLSVSPGESATLSCRASQTIYSNLAWYQRKPGQAPRLLIYRASTRATGIPARFSGSGSGTEFTLTISSLQSEDFAVYCCQQFNNWPYTFGQGTKLEIKR
With B18 as the binder, how does the Kd read?
The Kd was roughly 0.44 nM.

B19: 1.3g2 (antibody, V domains shown)
VH: QVQLVQSGAEVKKPGSSVKVSCKASGGTFSTYAISWVRQAPGQGLEWMGGIIPIFGTANYAQKFQGRVTIIADKSTNTAYMDLSSLRSEDTAVYYCAREGNLGYDVVTGYSYFVYWGQGTLVTVSS
VL: EIVLTQSPGTLSLSPGERATLSCRASQSVSSSYLAWYQQKPDQVPRLLIYGTSSRATGIPDRFSGSGSGTDFTLTISRLEPEDFAVYYCQQYGRSLTFGGGTKVEIKR
With B19 as the binder, how does the Kd read?
The Kd was roughly 1.1 nM.
